The target of one assay is T1, hVar3 (RG3036) (human, UniProt Q9UEW3 147-520).
T1 construct: Human MARCO His-CLD-SRCR with Q452D, Y472S and K473S (already in the entry); also called recombinant human SRCR MARCO hVar3 protein
In words: ELISA on hVar3.

Assay [1] has as its target T2, N-terminally polyhistidine tagged human MARCO ECD (147-520), recombinant (human, UniProt Q9UEW3 147-520).
T2 construct: also called PI-RG-3000; recombinant human MARCO; not shown: N-terminal polyhistidine tag
T2 sequence: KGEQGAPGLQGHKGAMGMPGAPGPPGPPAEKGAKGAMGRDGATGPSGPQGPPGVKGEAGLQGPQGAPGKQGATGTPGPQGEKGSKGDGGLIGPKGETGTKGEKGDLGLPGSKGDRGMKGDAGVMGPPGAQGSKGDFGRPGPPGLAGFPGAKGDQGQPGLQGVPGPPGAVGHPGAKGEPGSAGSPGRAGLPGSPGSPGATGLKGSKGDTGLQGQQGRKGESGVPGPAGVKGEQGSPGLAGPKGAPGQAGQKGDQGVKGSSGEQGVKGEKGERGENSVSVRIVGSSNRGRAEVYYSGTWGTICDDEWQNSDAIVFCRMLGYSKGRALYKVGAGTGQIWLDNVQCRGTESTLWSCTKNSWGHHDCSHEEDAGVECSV
Put plainly: ProbeLife Gator. As to the method: The kinetics assay used either anti-mouse Fc or anti-human Fc probes to capture the anti-MARCO antibodies onto the probe, and then a five-step kinetic protocol was used to measure the affinity of the antibodies to the antigen, including the following steps: baseline, loading, baseline, association, and dissociation. The kinetics buffer (K buffer) provided by ProbeLife was used to establish the baseline for 60 seconds, and then the anti-mFc or anti-hFc probes were loaded with 200 nM of the antibodies for 120s until the capture reached saturation, measurement of the baseline in K buffer was performed for another 60s, followed by the association step using 200 nM antigen (human MARCO, mouse MARCO or cyno MARCO), and the dissociation step performed in K buffer for 5-10 minutes. The assay was done at 37° C. to maximize antibody:antigen dissociation.

Assay [2] addresses T3, chimera Mouse MARCO CLD-human MARCO SRCR, on cells.
T3 chain: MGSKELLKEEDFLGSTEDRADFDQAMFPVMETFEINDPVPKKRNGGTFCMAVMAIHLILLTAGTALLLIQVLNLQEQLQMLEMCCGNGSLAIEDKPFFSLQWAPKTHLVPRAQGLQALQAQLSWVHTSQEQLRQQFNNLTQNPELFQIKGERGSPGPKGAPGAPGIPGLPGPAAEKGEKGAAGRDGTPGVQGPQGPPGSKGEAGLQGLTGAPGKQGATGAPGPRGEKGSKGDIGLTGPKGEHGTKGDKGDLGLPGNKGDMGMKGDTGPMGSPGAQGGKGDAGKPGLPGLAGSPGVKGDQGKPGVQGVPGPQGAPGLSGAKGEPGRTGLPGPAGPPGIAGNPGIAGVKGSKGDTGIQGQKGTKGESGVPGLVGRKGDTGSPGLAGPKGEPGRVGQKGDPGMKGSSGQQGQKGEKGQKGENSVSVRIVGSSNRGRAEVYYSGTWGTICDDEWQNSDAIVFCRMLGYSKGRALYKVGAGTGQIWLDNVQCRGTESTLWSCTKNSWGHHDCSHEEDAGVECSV
In words: flow cytometry, cells overexpressing HuSRCR-mouse CLD chimera. In general terms: Flow cytometry measures light scatter and fluorescence of single cells or particles in a stream.

Assay [3] has as its target T2, N-terminally polyhistidine tagged human …. In words: Biacore; sample stressed 40 C 2 week. On the procedure:
Binding of the stressed samples to recombinant human MARCO was assessed by Biacore.

For assay [4] the target is unchanged. Put plainly: ELISA readout A450-A620; the panel names no target, the legend says MARCO expressing cells; stable transfection pools.
Assay [5] concerns the target T4, N-terminal his-tagged mouse MARCO protein, recombinant (mouse, UniProt Q60754 150-518).
T4 construct: The entry holds the His tag, the CLD and the SRCR domain; also called mMARCO (RG3016); PI-RG-3016
T4 sequence: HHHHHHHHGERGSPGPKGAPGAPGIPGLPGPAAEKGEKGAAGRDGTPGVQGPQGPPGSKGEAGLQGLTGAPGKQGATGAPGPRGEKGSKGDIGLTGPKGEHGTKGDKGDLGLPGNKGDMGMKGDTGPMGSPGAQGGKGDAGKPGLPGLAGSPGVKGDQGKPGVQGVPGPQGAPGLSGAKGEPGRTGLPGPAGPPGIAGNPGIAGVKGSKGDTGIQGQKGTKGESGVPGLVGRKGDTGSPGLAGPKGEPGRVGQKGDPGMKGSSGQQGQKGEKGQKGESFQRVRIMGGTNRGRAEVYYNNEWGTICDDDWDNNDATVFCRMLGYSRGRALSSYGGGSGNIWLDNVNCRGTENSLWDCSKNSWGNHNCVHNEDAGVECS
Put plainly: Biacore.

Assay [6] has as its target T5, Mouse MARCO, full length, on cells (mouse, UniProt Q60754 1-518).
T5 construct: whole, on cells; the cell type is named under assay; also called muMARCO; MuMARCO
T5 sequence (looked up): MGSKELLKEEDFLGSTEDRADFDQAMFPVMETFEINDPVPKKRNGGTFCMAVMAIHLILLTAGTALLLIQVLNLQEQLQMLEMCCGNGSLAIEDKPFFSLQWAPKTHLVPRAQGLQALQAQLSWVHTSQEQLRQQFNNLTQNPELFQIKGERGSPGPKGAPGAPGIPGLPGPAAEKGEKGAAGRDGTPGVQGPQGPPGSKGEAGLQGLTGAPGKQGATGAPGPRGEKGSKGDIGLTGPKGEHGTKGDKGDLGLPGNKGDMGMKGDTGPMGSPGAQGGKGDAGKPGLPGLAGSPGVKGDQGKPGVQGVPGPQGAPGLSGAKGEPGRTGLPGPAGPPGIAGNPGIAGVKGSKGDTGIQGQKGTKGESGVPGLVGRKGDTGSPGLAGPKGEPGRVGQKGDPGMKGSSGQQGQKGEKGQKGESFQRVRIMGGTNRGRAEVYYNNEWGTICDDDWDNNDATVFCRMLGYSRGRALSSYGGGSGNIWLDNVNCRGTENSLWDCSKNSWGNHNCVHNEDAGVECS
Put plainly: competition with AF488 E. coli binding to muMARCO 293T cells, flow cytometry.

Some results are limits rather than exact numbers.

B1: PI-3010-AB (antibody, human IgG1, kappa)
heavy: not shown
light: DIQMTQSPASLSTSLGETVSIECLASEGISNDLAWYQQKSGKSPQLLIYAASRLQDGVPSRFSGSGSGTRYSLKISGMQPEDEADYFCQQSYKYPLTFGSGTKLEIKRTVAAPSVFIFPPSDEQLKSGTASVVCLLNNFYPREAKVQWKVDNALQSGNSQESVTEQDSKDSTYSLSSTLTLSKADYEKHKVYACEVTHQGLSSPVTKSFNRGEC
As for B1, the binding result with hVar3 (RG3036) is given as “no binding”. Further, the koff in assay [1] turned out to be 0.00234 s⁻¹. The molecule also registered a concentration giving a half-maximal response (EC50) in assay [2] of 0.25 nM.

B2: PI-3015-AB (antibody, human IgG1, kappa)
heavy: not shown
light: DIQMTQSPSSLSASVGDRVTITCRASEGISNDLAWYQQKPGKAPKLLIYAASRLQSGVPSRFSGSGSGTDYTLTISSMQPEDFATYYCQQSYKYPLTFGQGTKLEIKRTVAAPSVFIFPPSDEQLKSGTASVVCLLNNFYPREAKVQWKVDNALQSGNSQESVTEQDSKDSTYSLSSTLTLSKADYEKHKVYACEVTHQGLSSPVTKSFNRGEC
Take B2: in assay [3], the Kd came to 1.2 nM. Also, the 50% effective concentration (EC50 (read off the curve)) in assay [4] is around 0.2 nM.

B3: PI-HX-3061 (antibody, rat IgG2a)
heavy: EVQLVESGGGLVQPGSSLKLSCVASKFTFSNYGMNWIRQAPKKGLEWIALIYYNSNNKYYADSVKGRFTISRDNSKNTLYLEMNSLRSEDTAMYYCAKSLTGGSDYFDSWGQGVMVTVSSAETTAPSVYPLAPGTALKSNSMVTLGCLVKGYFPEPVTVTWNSGALSSGVHTFPAVLQSGLYTLTSSVTVPSSTWPSQTVTCNVAHPASSTKVDKKIVPRNCGGDCKPCICTGSEVSSVFIFPPKPKDVLTITLTPKVTCVVVDISQDDPEVHFSWFVDDVEVHTAQTRPPEEQFNSTFRSVSELPILHQDWLNGRTFRCKVTSAAFPSPIEKTISKPEGRTQVPHVYTMSPTKEEMTQNEVSITCMVKGFYPPDIYVEWQMNGQPQENYKNTPPTMDTDGSYFLYSKLNVKKEKWQQGNTFTCSVLHEGLHNHHTEKSLSHSP
light: DVQMTQSPSYLAASPGESVSISCKASKSIGTFLAWYQEKPEKTNKLLIYSGSTLQSGTPSRFSGSGSGTDFTLTIRNLEPEDFAVYYCQQHDEYPFTFGSGTKLEIKRADAAPTVSIFPPSTEQLATGGASVVCLMNNFYPRDISVKWKIDGTERRDGVLDSVTDQDSKDSTYSMSSTLSLTKADYESHNLYTCEVVHKTSSSPVVKSFNRNEC
notes: Parental rat hybridoma, rat IgG2a; cross reactive with human and mouse MARCO
Turning to B3, the Kd in assay [5] is below 0.02 nM. The same molecule registered a concentration for a half-maximal effect (EC50) in assay [6] of 0.85 nM.

The term koff denotes the rate constant with which the complex falls apart. Broadly, the EC50 is the concentration that produces a half-maximal response. The term Kd denotes a measure of binding affinity in units of concentration. What is called EC50 (read off the curve) is the concentration at which the effect is half-maximal.

(Values after US20220153832A1 (PIONYR IMMUNOTHERAPEUTICS, published 2022).)
